Reference: patent US20120244166A1 (published 2012)
Substitutions are numbered along the chain they refer to. Names may count otherwise.

Legend:
[1] = biological target: gp41 MPER peptide (residues 657 to 669 of gp41 linked to a C-terminal C9 tag); experiment: SPR
Du156.12 = experiment: ELISA

B1: 2F5 L100AS-V100DS (antibody, V domains shown)
VH: RITLKESGPPLVKPTQTLTLTCSFSGFSLSDFGVGVGWIRQPPGKALEWLAIIYSDDDKRYSPSLNTRLTITKDTSKNQVVLVMTRVSPVDTATYFCAHRRGPTTSFGSPIARGPVNAMDVWGQGITVTISS
VL: ALQLTQSPSSLSASVGDRITITCRASQGVTSALAWYRQKPGSPPQLLIYDASSLESGVPSRFSGSGSGTEFTLTISTLRPEDFATYYCQQLHFYPHTFGGGTRVDVRR
- Kd [1]: 36.7 nM

B2: 2F5 F100BS-I100FS (antibody, V domains shown)
VH: B1 VH with S106L, F107S, S109V, I111S
VL: B1 VL
- Kd [1]: 46.9 nM

B3: 2F5 L100AS-F100BS (antibody, V domains shown)
VH: B1 VH with F107S, S109V
VL: B1 VL
- Kd [1]: 10.9 nM

B4: 2F5 (antibody, V domains shown)
VH: B1 VH with S106L, S109V
VL: B1 VL
- Kd [1]: 9.5 nM

B5: 2F5 V100DS (antibody, V domains shown)
VH: B1 VH with S106L
VL: B1 VL
- Kd [1]: 14.3 nM

B6: 2F5 V100DW (antibody, V domains shown)
VH: B1 VH with S106L, S109W
VL: B1 VL
- Kd [1]: 11.9 nM

B7: 2F5 I100FS (antibody, V domains shown)
VH: B1 VH with S106L, S109V, I111S
VL: B1 VL
- Kd [1]: 27.3 nM

B8: 2F5 F100BW (antibody, V domains shown)
VH: B1 VH with S106L, F107W, S109V
VL: B1 VL
- Kd [1]: 11.2 nM

B9: 2F5 L100AW-V100DW (antibody, V domains shown)
VH: B1 VH with S106W, S109W
VL: B1 VL
- Kd [1]: 12.8 nM

B10: 2F5 L100AS (antibody, V domains shown)
VH: B1 VH with S109V
VL: B1 VL
- Kd [1]: 10.8 nM

B11: 2F5 F100BS (antibody, V domains shown)
VH: B1 VH with S106L, F107S, S109V
VL: B1 VL
- Kd [1]: 11.9 nM

B12: 2F5 L100AW (antibody, V domains shown)
VH: B1 VH with S106W, S109V
VL: B1 VL
- Kd [1]: 11.3 nM

B13: 2 (Heavy chain: G54S) (antibody, V domains shown)
VH: QVQLVQSGGQMKKPGESMRISCRASGYEFIDCTLNWIRLAPGKRPEWMGWLKPRGGAVNYARPLQGRVTMTRDVYSDTAFLELRSLTVDDTAVYFCTRGKNCDYNWDFEHWGRGTPVIVSS
VL: EIVLTQSPGTLSLSPGETAIISCRTSQYGSLAWYQQRPGQAPRLVIYSGSTRAAGIPDRFSGSRWGPDYNLTISNLESGDFGVYYCQQYEFFGQGTKVQVDI
- EC50 (Du156.12): 0.072 µg/mL

B14: Insertion-AA (antibody, V domains shown)
VH: B13 VH
VL: EIVLTQSPGTLSLSPGETAIISCRTSQYGSAALAWYQQRPGQAPRLVIYSGSTRAAGIPDRFSGSRWGPDYNLTISNLESGDFGVYYCQQYEFFGQGTKVQVDI
- EC50 (Du156.12): 2.02 µg/mL

B15: C32AC98S (antibody, V domains shown)
VH: B13 VH with C32S, C102A
VL: B13 VL
- EC50 (Du156.12): 0.048 µg/mL
